The source of these data is article PMC6448830 (PLoS Pathogens, 2019).

The target of experiment [1] is T1, A. trivirgatus 2B4-Fc fusion protein (Aotus trivirgatus).
T1 construct: also called host 2B4-Fc; aoCD244-Fc
Nature of the experiment: SPR. Conditions: both partners purified.

Experiment [2] addresses T2, human 2B4-Fc fusion protein (human, UniProt Q9BZW8 22-229).
T2 construct: also called h2B4-Fc; h2B4
T2 sequence: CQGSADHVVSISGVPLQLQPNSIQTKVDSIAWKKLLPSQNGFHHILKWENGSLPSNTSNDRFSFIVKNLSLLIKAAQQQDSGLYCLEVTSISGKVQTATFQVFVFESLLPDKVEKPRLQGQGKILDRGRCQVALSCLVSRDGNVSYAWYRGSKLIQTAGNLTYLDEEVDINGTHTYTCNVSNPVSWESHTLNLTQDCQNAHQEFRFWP
Kind of experiment: SPR. The note with it: both partners purified.

B1: A. trivirgatus CD48-Fc fusion protein (Fc fusion)
chain: TSIQGNSVDVINAISGGNVTLNISESLPENVREITWFCTYHQKIADWDVKRLKYFDNKFKGRVRLDYQSGALYISKIQKEDANIYIMRVLKETMYEQEWKIRLQVFDPVPKPDIKIEKTAKVEDDCYLKLSCVIPDESVNYTWYGDKEPFPKEFQSGVLETTLKSQDYSRCYTCQVSNPVSSKNDTVCFS
modifications: biotin (biotinylated host CD48-Fc in the blocking ELISA)
With B1, in experiment [1], binding was characterised by a dissociation constant (Kd) of 3.3 nM.

B2: A43-Fc fusion protein (Fc fusion)
chain: VNIVNALVGGNITLNISESLPENVREITWFCTYDQKIADWDVKRLKYFDNKFKGRVRLDSQSGALYLSRVQKEDANIYIMRVLKDTMFEQDWKIRLQVFDEVDTPNITLVNTTLISDTCYVNFSCSHHDSLCYTSNENCTWYHFSQNITKTPPWNHSASSNSCYTCEFKNPVHRKNITMCISGCGQT
modifications: Wild-type viral ectodomain. The human IgG1 Fc carrier (dimerising) and CD33 leader are left out. The C-terminal limit follows from the printed membrane-proximal region 214-225, so Ig2 ends at …
Consider B2, for which, in experiment [2], the Kd (as a rule, the free concentration of one partner at which half of the binding sites on the other are occupied at equilibrium, for simple one-to-one binding) is 3.6 nM; the “fold higher affinity than hCD48” value was found to be 6 fold; the “fold slower dissociation than hCD48” value stood at 55 fold; the koff (as a rule, a measure of how fast the partners let go of each other) amounted to 0.000405 s⁻¹. Further, in experiment [2], the kon (as a rule, a measure of how fast the partners come together) came out at 169000 M⁻¹ s⁻¹. Also, in experiment [1], the Kd was 1.3 nM, the “fold slower dissociation than host CD48” value is 2.6 fold, the koff is 0.000188 s⁻¹ and the kon was 116000 M⁻¹ s⁻¹.
